Results published in patent publication US20010029293A1 (ICOS, published 2001).

Key:
human ICAM-1 = target: T1, human ICAM-1 (human, UniProt P05362 28-532); assay: FACS, 5 µg/ml
T1 construct: whole, on cells; on transfected L or COS cells

[1] = target: T2, chimeric Protein 3 (ICAM-R domains 1-3 / ICAM-1) (human, UniProt P05362 317-532); assay: FACS, 5 µg/ml
T2 construct: range 317-532; on COS cells; also called Protein number 3; RD1-3.1D4-5

human ICAM-R [2] = target: T3, human ICAM-R (human, UniProt P32942 30-547); assay: FACS, 5 µg/ml
T3 construct: On transfected L, CV-1 or COS cells, or native on human leukocytes and cell lines; also called ICAM-3; CDw50
T3 chain: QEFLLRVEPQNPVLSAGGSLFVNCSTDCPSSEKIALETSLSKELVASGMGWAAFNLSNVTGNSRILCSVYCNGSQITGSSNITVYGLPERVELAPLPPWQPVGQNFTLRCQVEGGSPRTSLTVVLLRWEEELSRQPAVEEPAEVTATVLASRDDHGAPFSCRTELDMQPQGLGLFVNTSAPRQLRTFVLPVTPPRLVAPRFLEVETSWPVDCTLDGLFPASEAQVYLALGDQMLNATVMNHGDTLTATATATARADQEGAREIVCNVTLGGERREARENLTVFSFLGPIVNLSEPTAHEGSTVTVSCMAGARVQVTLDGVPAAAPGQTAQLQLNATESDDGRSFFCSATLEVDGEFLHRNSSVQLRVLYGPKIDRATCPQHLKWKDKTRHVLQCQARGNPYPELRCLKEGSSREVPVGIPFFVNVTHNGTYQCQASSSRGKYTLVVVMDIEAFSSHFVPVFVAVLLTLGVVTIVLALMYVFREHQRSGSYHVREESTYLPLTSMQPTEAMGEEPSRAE

human ICAM-R [3] = target: T3, human ICAM-R; assay: cell-based or functional assay
soluble human ICAM-R = target: T4, soluble human ICAM-R (human, UniProt P32942 30-485); assay: ELISA on coated shICAM-R; Low = 50% maximal binding at >1 µg/ml, High = at <1 µg/ml
T4 construct: baculovirus/Sf-9 product; also called shICAM-R; ICAM-Rt1
T4 chain: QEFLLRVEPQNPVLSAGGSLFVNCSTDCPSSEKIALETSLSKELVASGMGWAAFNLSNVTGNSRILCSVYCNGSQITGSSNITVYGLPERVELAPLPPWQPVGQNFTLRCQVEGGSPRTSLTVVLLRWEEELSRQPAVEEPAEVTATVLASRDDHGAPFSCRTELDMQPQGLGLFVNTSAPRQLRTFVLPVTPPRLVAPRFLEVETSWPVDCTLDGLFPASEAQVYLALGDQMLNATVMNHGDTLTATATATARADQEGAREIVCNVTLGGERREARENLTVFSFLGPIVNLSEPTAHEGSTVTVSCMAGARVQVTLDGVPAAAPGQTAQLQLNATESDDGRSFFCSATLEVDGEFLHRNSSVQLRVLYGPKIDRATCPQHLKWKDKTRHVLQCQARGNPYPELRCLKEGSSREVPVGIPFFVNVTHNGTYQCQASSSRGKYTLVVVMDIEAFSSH

T1 sequence (P05362 28-532): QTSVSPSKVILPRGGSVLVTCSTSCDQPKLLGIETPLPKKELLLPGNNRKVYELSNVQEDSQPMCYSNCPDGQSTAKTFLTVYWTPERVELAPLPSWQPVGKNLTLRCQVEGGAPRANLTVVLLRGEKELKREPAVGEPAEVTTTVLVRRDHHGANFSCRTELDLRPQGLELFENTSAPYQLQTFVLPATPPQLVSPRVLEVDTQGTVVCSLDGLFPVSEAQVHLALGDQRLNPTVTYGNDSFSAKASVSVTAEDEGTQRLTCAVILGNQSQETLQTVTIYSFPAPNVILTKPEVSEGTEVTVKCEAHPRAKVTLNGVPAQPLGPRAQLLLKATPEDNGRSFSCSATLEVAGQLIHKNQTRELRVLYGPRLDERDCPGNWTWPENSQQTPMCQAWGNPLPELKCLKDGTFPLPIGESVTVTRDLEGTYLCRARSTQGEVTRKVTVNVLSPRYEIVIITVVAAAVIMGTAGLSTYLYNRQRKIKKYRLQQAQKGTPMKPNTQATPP

percent positive COS cell transfectants (human ICAM-1): 2.43%
percent positive COS cell transfectants [1]: 52.7%
percent positive COS cell transfectants (human ICAM-R [2]): 54.3%
IC50 (µg/ml), inhibition of SEA-induced PBL proliferation by plate-bound antibody (human ICAM-R [3]): 63 µg/mL
monoclonal antibody concentration at 50% maximal binding (ELISA EC50) (soluble human ICAM-R): > 1 µg/mL
B1: ICR-1.1 (antibody, mouse IgG2a, V domains shown)
VH: QVQLQQSGAELADPGASVKMSCKASGYTFTVYWMHWVKQRPGQGLEWIGYINPNTDYTEYNQRFQDKATLTADKSSSTAYMQLSSLTSEDSAVYYCARWGGNSYGLDYWGQGTSVTVSS
VL: QIVLTQSPALMSASPGEKVTMTCSASSSVSYIYWYQQKPRSSPKPWIYLTSNLASGVPARFSGSGSGASYSLTISIMEAEDAATYYCQQWKSIPLTFGAGTKLELK
notes: murine IgG2a, kappa; also called 26E3D; 26E3D-1
